Like-named read-outs stand apart in the source and are kept apart here.
Tests used:
[1] = molecular target: T1, rGDH (recombinant glutamate dehydrogenase) (Clostridium difficile, UniProt P27346 SEQ:1-421); test: pulldown; […]; PBS pH 7.6, room temperature; settings: tags: C-terminal His6; expressed in E. coli; Pro-Lab Diagnostics
T1 sequence: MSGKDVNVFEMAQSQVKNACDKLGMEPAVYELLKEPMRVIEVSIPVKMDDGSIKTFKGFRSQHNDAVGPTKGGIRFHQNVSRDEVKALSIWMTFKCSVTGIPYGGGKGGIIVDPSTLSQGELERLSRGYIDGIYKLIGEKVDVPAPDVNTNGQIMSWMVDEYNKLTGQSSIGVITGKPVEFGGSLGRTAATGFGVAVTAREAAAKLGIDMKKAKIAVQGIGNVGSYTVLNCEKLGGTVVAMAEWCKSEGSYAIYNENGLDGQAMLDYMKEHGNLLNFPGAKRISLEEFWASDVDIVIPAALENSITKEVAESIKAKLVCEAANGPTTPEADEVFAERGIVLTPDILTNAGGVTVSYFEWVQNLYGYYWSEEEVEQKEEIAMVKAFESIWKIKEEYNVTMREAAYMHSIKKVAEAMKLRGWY

[2] = molecular target: T1, rGDH (recombinant glutamate …); test: pulldown; 20 nM DNA, rGDH beads; settings: tags: C-terminal His6; expressed in E. coli; Pro-Lab Diagnostics
[3] = molecular target: T1, rGDH (recombinant glutamate …); test: pulldown; settings: tags: C-terminal His6; expressed in E. coli; Pro-Lab Diagnostics
BSA [4] = molecular target: T2, BSA (UniProt P02769 P02769:25-607); test: EMSA; 10 nM protein; settings: tags: Sigma
Procedure: The truncated aptamer, anti-GDH-T1, was then radioactively labeled at the 5′ end and tested for binding to the rGDH target by EMSA assays.^{39,40} A typical image of an EMSA result is shown in FIG. 3A. It was observed that the electrophoretic mobility of the protein-aptamer complex was typically less than that of the free aptamer. The fractional saturation of bound aptamer was calculated as a function of rGDH concentration (FIG. 3B). […] The specificity was also tested by EMSA. No obvious band was observed when using proteins such as BSA, thrombin and IgG (FIG. 8).
Binding reactions were performed in 20 μL of 1× binding buffer containing 3 nM 32P-labeled anti-GDH1-T1 aptamer and various concentrations of rGDH (0 to 1000 nM). After incubation for 30 min, the reaction mixtures were spiked with 6× loading buffer, and then loaded into the wells of a nondenaturing polyacrylamide gel (8%) at 4° C. Visualization of DNA bands was done using a Typhoon 9200 imager and the resulting bands were quantified with ImageQuant software.

thrombin [5] = molecular target: T3, thrombin (Homo sapiens, UniProt P00734;P00734 P00734:328-363,P00734:364-622); test: EMSA
[6] = molecular target: T1, rGDH (recombinant glutamate …); test: EMSA; […]; 1x PBS, 150 mM NaCl, 0.02% Tween-20, pH 7.6; […]; settings: tags: C-terminal His6; expressed in E. coli; Pro-Lab Diagnostics
TcdA (toxin A) = TcdA (toxin A) (Clostridium difficile, UniProt P16154 SEQ:1-2710)
TcdB (toxin B) = TcdB (toxin B) (Clostridium difficile, UniProt P18177 SEQ:2-2366)
thrombin [7] = molecular target: T3, thrombin
BSA [8] = molecular target: T2, BSA; test: RGO fluorescence sensor, 300 nM protein, no significant response; settings: tags: Sigma
Procedure: The detection limit (defined as 3σ/slope, with a being the standard deviation of the blank samples) of the sensor was determined to be 1 nM (FIG. 5A). The selectivity of the aptamer-graphene biosensing system was also evaluated by using non-target proteins (BSA, thrombin, IgG, TcdA and TcdB).
In a typical assay, 20 μL of 5× binding buffer (5×PBS, containing 750 mM NaCl and 0.1% Tween-20, pH 7.6), 2 μL of FAM-labeled (5′ end) aptamer probe (7 μM), 30 μL of RGO solution (100 μg/mL) and 48 μL of water were first mixed and incubated in a micro-centrifuge tube for 30 min. Then, 10 μL of 1% BSA was added to block the surface. After incubating for 20 min, 5 μL of nGDH with different dilutions was added to the mixture and time-dependent fluorescence emission measurements were performed at λₑₓ/λₑₘ=494/518 nm. The emission intensity obtained at a reaction time of 60 min was plotted against nGDH concentration to obtain a limit of detection. A similar experiment was carried out using non-target proteins (BSA, human thrombin, human IgG, TcdA and TcdB from C. difficile) to evaluate aptamer selectivity.

[9] = molecular target: T1, rGDH (recombinant glutamate …); test: pulldown; 20 nM DNA, rGDH beads; decreased; settings: tags: C-terminal His6; expressed in E. coli; Pro-Lab Diagnostics
[10] = molecular target: T1, rGDH (recombinant glutamate …); test: pulldown; […]; 1x PBS, 150 mM NaCl, 0.02% Tween-20, pH 7.6, room temperature; settings: tags: C-terminal His6; expressed in E. coli; Pro-Lab Diagnostics

T2 sequence (P02769 25-607, one chain of several): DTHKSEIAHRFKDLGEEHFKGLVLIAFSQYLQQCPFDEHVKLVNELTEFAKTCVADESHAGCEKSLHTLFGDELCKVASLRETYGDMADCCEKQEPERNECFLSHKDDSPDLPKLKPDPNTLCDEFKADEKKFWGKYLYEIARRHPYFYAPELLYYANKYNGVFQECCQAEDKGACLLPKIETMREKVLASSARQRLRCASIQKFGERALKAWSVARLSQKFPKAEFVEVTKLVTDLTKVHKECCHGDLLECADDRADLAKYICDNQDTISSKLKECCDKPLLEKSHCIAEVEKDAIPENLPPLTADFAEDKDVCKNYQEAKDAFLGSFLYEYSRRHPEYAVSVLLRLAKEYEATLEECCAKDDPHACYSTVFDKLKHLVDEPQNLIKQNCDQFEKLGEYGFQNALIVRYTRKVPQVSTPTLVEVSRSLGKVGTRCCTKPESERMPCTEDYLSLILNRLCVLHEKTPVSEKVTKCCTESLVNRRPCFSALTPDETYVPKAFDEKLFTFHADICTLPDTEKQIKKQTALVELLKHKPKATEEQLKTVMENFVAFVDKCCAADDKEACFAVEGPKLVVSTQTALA
TcdB (toxin B), sequence (P18177 2-2366): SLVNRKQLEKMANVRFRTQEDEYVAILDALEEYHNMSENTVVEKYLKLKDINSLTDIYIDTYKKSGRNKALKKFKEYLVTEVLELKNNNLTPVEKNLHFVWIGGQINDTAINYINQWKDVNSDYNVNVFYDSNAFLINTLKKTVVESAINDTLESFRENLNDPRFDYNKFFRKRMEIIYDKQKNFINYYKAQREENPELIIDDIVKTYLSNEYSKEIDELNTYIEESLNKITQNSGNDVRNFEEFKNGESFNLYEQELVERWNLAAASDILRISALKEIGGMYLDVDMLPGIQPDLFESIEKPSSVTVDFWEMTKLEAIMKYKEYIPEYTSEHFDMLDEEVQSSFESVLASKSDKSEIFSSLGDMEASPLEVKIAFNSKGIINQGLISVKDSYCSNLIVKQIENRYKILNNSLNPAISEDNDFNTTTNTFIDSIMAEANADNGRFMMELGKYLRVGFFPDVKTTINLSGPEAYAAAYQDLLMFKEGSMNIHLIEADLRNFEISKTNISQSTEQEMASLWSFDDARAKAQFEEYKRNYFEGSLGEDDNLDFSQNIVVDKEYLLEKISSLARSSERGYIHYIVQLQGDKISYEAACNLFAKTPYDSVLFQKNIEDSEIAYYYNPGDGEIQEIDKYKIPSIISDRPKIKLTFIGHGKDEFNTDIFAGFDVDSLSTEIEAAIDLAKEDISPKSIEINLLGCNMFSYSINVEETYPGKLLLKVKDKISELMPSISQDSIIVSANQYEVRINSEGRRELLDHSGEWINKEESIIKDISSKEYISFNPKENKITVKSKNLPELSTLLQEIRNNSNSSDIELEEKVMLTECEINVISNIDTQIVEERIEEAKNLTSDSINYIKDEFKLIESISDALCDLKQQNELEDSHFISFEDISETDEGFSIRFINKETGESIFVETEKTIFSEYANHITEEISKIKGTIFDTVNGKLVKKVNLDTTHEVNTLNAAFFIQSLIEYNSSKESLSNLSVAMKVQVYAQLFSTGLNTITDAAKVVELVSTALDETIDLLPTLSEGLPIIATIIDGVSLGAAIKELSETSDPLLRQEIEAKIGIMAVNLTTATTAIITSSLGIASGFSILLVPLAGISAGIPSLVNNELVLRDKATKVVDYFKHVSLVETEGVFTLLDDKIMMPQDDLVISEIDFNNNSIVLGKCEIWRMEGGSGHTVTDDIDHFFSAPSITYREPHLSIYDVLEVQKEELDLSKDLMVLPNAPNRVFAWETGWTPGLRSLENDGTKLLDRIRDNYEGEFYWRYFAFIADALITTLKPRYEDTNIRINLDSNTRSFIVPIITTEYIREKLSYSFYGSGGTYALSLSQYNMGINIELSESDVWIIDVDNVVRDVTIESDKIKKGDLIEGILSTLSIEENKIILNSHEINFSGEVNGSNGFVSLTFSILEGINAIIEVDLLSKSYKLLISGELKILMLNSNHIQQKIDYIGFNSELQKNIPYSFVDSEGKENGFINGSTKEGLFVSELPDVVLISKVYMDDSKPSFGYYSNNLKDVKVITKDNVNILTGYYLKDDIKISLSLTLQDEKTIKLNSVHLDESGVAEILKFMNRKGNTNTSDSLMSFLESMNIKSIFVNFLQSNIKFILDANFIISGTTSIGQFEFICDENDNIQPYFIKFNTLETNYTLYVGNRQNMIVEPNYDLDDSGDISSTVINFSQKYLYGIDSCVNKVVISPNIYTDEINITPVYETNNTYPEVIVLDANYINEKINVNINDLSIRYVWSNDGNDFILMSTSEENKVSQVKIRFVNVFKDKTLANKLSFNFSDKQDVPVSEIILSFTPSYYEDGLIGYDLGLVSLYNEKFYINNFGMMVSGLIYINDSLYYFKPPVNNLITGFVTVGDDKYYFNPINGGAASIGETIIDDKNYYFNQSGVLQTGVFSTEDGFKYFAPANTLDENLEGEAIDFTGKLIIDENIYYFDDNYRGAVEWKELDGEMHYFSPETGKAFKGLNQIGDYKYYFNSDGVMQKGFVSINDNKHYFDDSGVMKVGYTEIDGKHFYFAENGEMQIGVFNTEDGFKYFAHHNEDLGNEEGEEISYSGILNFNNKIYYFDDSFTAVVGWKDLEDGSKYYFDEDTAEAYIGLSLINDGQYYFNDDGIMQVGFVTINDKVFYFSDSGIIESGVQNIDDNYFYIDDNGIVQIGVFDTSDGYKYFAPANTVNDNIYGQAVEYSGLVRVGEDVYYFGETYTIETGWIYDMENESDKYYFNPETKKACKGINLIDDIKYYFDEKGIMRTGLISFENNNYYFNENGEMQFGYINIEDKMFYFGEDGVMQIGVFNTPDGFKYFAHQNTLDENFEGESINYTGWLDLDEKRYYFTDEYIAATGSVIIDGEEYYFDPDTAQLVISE

B1: anti-G7 (anti-GDH7) (ssDNA)
DNA: CAGGTCCATCGAGTGGTAGGACCCAACCCACGATGCGCAAGAGGAATGCAGCCTACCAGCATCGCACTGCTCCTGAACGTAC
B1 was tested. Which Kd [1] did it give?
The Kd was 4.6 nM.

Does TAGTGCCAAGCCATCTCAAACGACGTCTGAGTCGCACTG (ssDNA) [anti-G1-T7] bind [2]?
Result: no binding

Does AGCCATCTCAAACGACGTCTGAGTCGCA (ssDNA) [anti-G1-T6] bind [2]?
Result: no binding

Does AGGTATTTAGTGCCAAGCCATCTCAAACGACGTCTGAGTCGCACTGCT (ssDNA) [anti-G1-T4] bind [3]?
Result: binds

Does AGGTATTTAGTGCCAAGCCATCGTCGCACTGCTCCTG (ssDNA) [anti-G1-T8] bind [2]?
Result: no binding

B2: anti-G1-T1 (ssDNA)
DNA: TAGGAGGAGGTATTTAGTGCCAAGCCATCTCAAACGACGTCTGAGTCGCACTGCTCCTG
Does B2 bind (BSA [4])?
Result: no binding

Does B2 bind (thrombin [5])?
Result: no binding

And the Kd [6]?
Its Kd is 4.5 nM.

B3: FAM-anti-GDH1-T1 (ssDNA)
DNA: B2 DNA
Does B3 bind (TcdA (toxin A))?
Result: no binding

Does B3 bind (TcdB (toxin B))?
Result: no binding

Does B3 bind (thrombin [7])?
Result: no binding

Does B3 bind (BSA [8])?
Result: no binding

B4: anti-G3 (anti-GDH3) (ssDNA)
DNA: CAGGTCCATCGAGTGGTAGGATGCAGCGGACAGTGTGGGACCATCGCTGCGGATGTATGAATCGCACTGCTCCTGAACGTAC
For B4, which Kd [1] is on record?
The Kd was 5.6 nM.

B5: anti-G1-T3 (ssDNA)
DNA: AGGTATTTAGTGCCAAGCCATCTCAAACGACGTCTGAGTCGCACTGCTCCTG
Does B5 bind [9]?
Result: binds

B6: anti-G1 (anti-GDH1) (ssDNA)
DNA: CAGGTCCATCGAGTGGTAGGAGGAGGTATTTAGTGCCAAGCCATCTCAAACGACGTCTGAGTCGCACTGCTCCTGAACGTAC
How did the Kd [10] turn out when B6 was run?
The Kd was 3.1 nM.
